Substrate: COc1ccc(O[C@H]2S[C@H](CO)[C@@H](O)[C@H](O)[C@H]2NC(C)=O)cc1
Assay: OGA kinetics, Michaelis-Menten hydrolysis of pMP glycosides
Assay type: biochemical, human
Details: other: 37° C., pH 7.4
Procedure: OGA kinetics: Synthesis and characterization of para-methoxyphenyl-5SGlcNAc is described in Example II. Kinetics were performed at 37° C. in PBS, pH 7.4 in a total volume of […]. Substrate concentrations of 25 μM to 1.5 mM were used for pMP-GlcNAc and 25 to 800 μM for pMP-5SGlcNAc. OGA (which was over-expressed and purified as described in Ref. ^42) was used at a concentration of 1 μM for pMP-GlcNAc and 3.6 μM for pMP-5SGlcNAc. Rates were monitored at a wavelength of 296 nm over the course of 10-20 min. Data were fit to the Michaelis-Menten equation in GRAFIT^41 and the kcat and KM values determined.

B1: OGA (Homo sapiens) (protein)
chain: MVQKESQATLEERESELSSNPAASAGASLEPPAAPAPGEDNPAGAGGAAVAGAAGGARRFLCGVVEGFYGRPWVMEQRKELFRRLQKWELNTYLYAPKDDYKHRMFWREMYSVEEAEQLMTLISAAREYEIEFIYAISPGLDITFSNPKEVSTLKRKLDQVSQFGCRSFALLFDDIDHNMCAADKEVFSSFAHAQVSITNEIYQYLGEPETFLFCPTEYCGTFCYPNVSQSPYLRTVGEKLLPGIEVLWTGPKVVSKEIPVESIEEVSKIIKRAPVIWDNIHANDYDQKRLFLGPYKGRSTELIPRLKGVLTNPNCEFEANYVAIHTLATWYKSNMNGVRKDVVMTDSEDSTVSIQIKLENEGSDEDIETDVLYSPQMALKLALTEWLQEFGVPHQYSSRQVAHSGAKASVVDGTPLVAAPSLNATTVVTTVYQEPIMSQGAALSGEPTTLTKEEEKKQPDEEPMDMVVEKQEETDHKNDNQILSEIVEAKMAEELKPMDTDKESIAESKSPEMSMQEDCISDIAPMQTDEQTNKEQFVPGPNEKPLYTAEPVTLEDLQLLADLFYLPYEHGPKGAQMLREFQWLRANSSVVSVNCKGKDSEKIEEWRSRAAKFEEMCGLVMGMFTRLSNCANRTILYDMYSYVWDIKSIMSMVKSFVQWLGCRSHSSAQFLIGDQEPWAFRGGLAGEFQRLLPIDGANDLFFQPPPLTPTSKVYTIRPYFPKDEASVYKICREMYDDGVGLPFQSQPDLIGDKLVGGLLSLSLDYCFVLEDEDGICGYALGTVDVTPFIKKCKISWIPFMQEKYTKPNGDKELSEAEKIMLSFHEEQEVLPETFLANFPSLIKMDIHKKVTDPSVAKSMMACLLSSLKANGSRGAFCEVRPDDKRILEFYSKLGCFEIAKMEGFPKDVVILGRSL
notes: made in house
Which Km does the source give for B1 here?
The Km was 35 µM.

From patent publication US20150259371A1, “METHODS AND COMPOUNDS FOR INHIBITING GLYCOSYLTRANSFERASES” (SIMON FRASER UNIVERSITY, priority 2010, published 2015)
